Results taken from publication PMC7005279, “Cryo-EM study of an archaeal 30S initiation complex gives insights into evolution of translation initiation” (Communications Biology, 2020).
Each block holds one binder with its values, some of them ahead of it.

Tests used:
[1] = molecular target: T1, ribosomal protein uS9 of the Pyrococcus abyssi 30S subunit (P. abyssi, UniProt Q9V195 1-135); experiment: cryo-EM structure; IC2 complex (Pa-30S:mRNA:aIF1A:aIF2:GDPNP:Met-tRNAi) purified on TALON by N-terminally tagged aIF2β and aIF2α; overall 3.2 Å, classes IC2A 4.2 Å and IC2B 3.3 Å; aIF1A and aIF2 placed by rigid body fitting; conditions: both partners purified
T1 construct: 30S ribosomal protein uS9 (S9), Pyrococcus abyssi; its C-terminal residue is printed as R135; Subunit of the native 30S; source: endogenous, in 30S subunits purified from P. abyssi

[2] = molecular target: ribosomal protein uS11 of the Pyrococcus abyssi 30S subunit (P. abyssi, UniProt P62010 1-137); experiment: as above; conditions: both partners purified

T1 sequence (Q9V195 whole entry): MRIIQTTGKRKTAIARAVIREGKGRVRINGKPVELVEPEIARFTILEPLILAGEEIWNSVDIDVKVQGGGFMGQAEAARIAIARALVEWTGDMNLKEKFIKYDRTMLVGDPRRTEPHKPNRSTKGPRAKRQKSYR

binding result [1]: binds
B1: ribosomal protein uS19 of the Pyrococcus abyssi 30S subunit (natural protein)
chain: not shown
notes: 30S ribosomal protein uS19 (S19), Pyrococcus abyssi; Subunit of the native 30S; source: endogenous, in 30S subunits purified from P. abyssi

binding result [2]: binds
B2: ribosomal protein uS7 of the Pyrococcus abyssi 30S subunit (natural protein)
chain: not shown
notes: Subunit of the native 30S; source: endogenous, in 30S subunits purified from P. abyssi
